From US20150203577A1 (Chugai, published 2015) come the findings set out here.

Test [1] has as its target T1, mouse FcγRII extracellular domain with C-terminal His tag (mouse, UniProt P08101 30-210).
T1 construct: Made on the basis of NCBI NP-034317.1; also called mFcγRII; mFcgRII
T1 sequence: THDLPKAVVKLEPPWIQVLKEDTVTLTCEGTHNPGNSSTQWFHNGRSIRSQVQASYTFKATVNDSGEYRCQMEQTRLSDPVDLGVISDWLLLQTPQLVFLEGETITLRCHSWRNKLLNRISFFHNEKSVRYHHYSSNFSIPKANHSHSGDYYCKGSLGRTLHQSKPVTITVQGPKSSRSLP
Put plainly: SPR Biacore T200. On the procedure: (§1) Each altered antibody was analyzed for its interaction with each Fcγ receptor prepared above using Biacore T100 (GE Healthcare Japan Corp.), Biacore T200 (GE Healthcare Japan Corp.), Biacore A100, or Biacore 4000. The running buffer used was HBS-EP+ (GE Healthcare Japan Corp.). The assay temperature was set to 25° C. The sensor chips used were chips prepared by immobilizing Protein L (ACTIGEN or BioVision) onto Series S Sensor Chip CM5 (GE Healthcare Japan Corp.) or Series S Sensor Chip CM4 (GE Healthcare Japan Corp.) by the amine coupling method.
(§2) In order to calculate the KD value of each altered antibody for FcγR, kinetic analysis was conducted according to the following method: first, the antibody of interest was captured onto any of these chips and allowed to interact with mFcγR diluted with a running buffer. For the obtained sensorgram, the assay results were globally fit into the 1:1 Langmuir binding model using Biacore Evaluation Software to calculate an association rate constant ka (L/mol/s) and a dissociation rate constant kd (1/s). From these values, the dissociation constant KD (mol/L) was calculated.
A general note: SPR reads the build-up and loss of mass on a sensor chip optically.

Test [2] has as its target T2, mouse FcγRIII extracellular domain with C-terminal His tag (mouse, UniProt P08508 31-215).
T2 construct: Made on the basis of NCBI NP-034318.2; also called mFcγRIII; mFcgRIII
T2 chain: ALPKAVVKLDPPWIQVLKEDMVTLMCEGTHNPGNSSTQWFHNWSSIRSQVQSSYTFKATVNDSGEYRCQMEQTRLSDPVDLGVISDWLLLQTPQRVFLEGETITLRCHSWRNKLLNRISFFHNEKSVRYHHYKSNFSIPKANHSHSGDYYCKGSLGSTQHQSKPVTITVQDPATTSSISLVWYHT
Nature of the test: SPR Biacore T200. As for the experimental part:
as §1, §2

Test [3] concerns the target T1, mouse FcγRII extracellular domain with …. Put plainly: SPR Biacore T200; KD mFcγRIII / KD mFcγRII. As for the experimental part: as §1, §2

B1: H237-MB400/MRAL-k0 (antibody, mouse IgG1, kappa)
heavy: QVQLQESGPGLVKPSETLSLTCAVSGHSISHDHAWSWVRQPPGEGLEWIGFISYSGITNYNPSLQGRVTISRDNSKNTLYLQMNSLRAEDTAVYYCARSLARTTAMDYWGEGTLVTVSSAKTTPPSVYPLAPGSAAQTNSMVTLGCLVKGYFPEPVTVTWNSGSLSSGVHTFPAVLQSDLYTLSSSVTVPSSTWPSETVTCNVAHPASSTKVDKKIVPRDCGCKPCICEWNEVEDVFIFPPKPKDVLTITLTPKVTCVVVDISKDDPEVQFSWFVDDVEVHTAQTQPREEQFNSTFRSVSELPIMHQDWLNGKEFKCRVNSAAFPAPIEKTISKTKGRPKAPQVYTIPPPKEQMAKDKVSLTCMITDFFPEDITVEWQWNGQPAENYKNTQPIMDTDGSYFVYSKLNVQKSNWEAGNTFTCSVLHEGLHNHHTEKSLSHSPGK
light: not shown
notes: copies: 2 + 2
On to B1, for which the “relative mFcγRII-binding activity (mIgG1 = 1)” value in test [1] worked out at 81.7. Moreover, the “relative mFcγRIII-binding activity (mIgG1 = 1)” value in test [2] is 5.5. Moreover, the “relative I/A (mFcγRII selectivity) (mIgG1 = 1)” value in test [3] was determined as 15.

B2: H237-MB401/MRAL-k0 (antibody, mouse IgG1, kappa)
heavy: QVQLQESGPGLVKPSETLSLTCAVSGHSISHDHAWSWVRQPPGEGLEWIGFISYSGITNYNPSLQGRVTISRDNSKNTLYLQMNSLRAEDTAVYYCARSLARTTAMDYWGEGTLVTVSSAKTTPPSVYPLAPGSAAQTNSMVTLGCLVKGYFPEPVTVTWNSGSLSSGVHTFPAVLQSDLYTLSSSVTVPSSTWPSETVTCNVAHPASSTKVDKKIVPRDCGCKPCICEWWEVEDVFIFPPKPKDVLTITLTPKVTCVVVDISKDDPEVQFSWFVDDVEVHTAQTQPREEQFNSTFRSVSELPIMHQDWLNGKEFKCRVNSAAFPAPIEKTISKTKGRPKAPQVYTIPPPKEQMAKDKVSLTCMITDFFPEDITVEWQWNGQPAENYKNTQPIMDTDGSYFVYSKLNVQKSNWEAGNTFTCSVLHEGLHNHHTEKSLSHSPGK
light: not shown
notes: copies: 2 + 2
On to B2, for which, in test [1], the “relative mFcγRII-binding activity (mIgG1 = 1)” value stood at 162. The “relative mFcγRIII-binding activity (mIgG1 = 1)” value in test [2] was 6.9. In addition, the “relative I/A (mFcγRII selectivity) (mIgG1 = 1)” value in test [3] was found to be 23.7.

B3: H237-MB404/MRAL-k0 (antibody, mouse IgG1, kappa)
heavy: QVQLQESGPGLVKPSETLSLTCAVSGHSISHDHAWSWVRQPPGEGLEWIGFISYSGITNYNPSLQGRVTISRDNSKNTLYLQMNSLRAEDTAVYYCARSLARTTAMDYWGEGTLVTVSSAKTTPPSVYPLAPGSAAQTNSMVTLGCLVKGYFPEPVTVTWNSGSLSSGVHTFPAVLQSDLYTLSSSVTVPSSTWPSETVTCNVAHPASSTKVDKKIVPRDCGCKPCICDAYEVEDVFIFPPKPKDVLTITLTPKVTCVVVDISKDDPEVQFSWFVDDVEVHTAQTQPREEQFNSTFRSVSELPIMHQDWLNGKEFKCRVNSAAFPAPIEKTISKTKGRPKAPQVYTIPPPKEQMAKDKVSLTCMITDFFPEDITVEWQWNGQPAENYKNTQPIMDTDGSYFVYSKLNVQKSNWEAGNTFTCSVLHEGLHNHHTEKSLSHSPGK
light: not shown
notes: also called M8404; copies: 2 + 2
Take B3: in test [1], the Kd worked out at 0.891 nM and the “relative mFcγRII-binding activity (mIgG1 = 1)” value was found to be 236. For the same molecule, in test [2], the Kd was found to be 33 nM and the “relative mFcγRIII-binding activity (mIgG1 = 1)” value worked out at 8.6. In test [3], the “I/A (mFcγRII selectivity)” value was 37 and the “relative I/A (mFcγRII selectivity) (mIgG1 = 1)” value stood at 27.6.

B4: H237-MB402/MRAL-k0 (antibody, mouse IgG1, kappa)
heavy: QVQLQESGPGLVKPSETLSLTCAVSGHSISHDHAWSWVRQPPGEGLEWIGFISYSGITNYNPSLQGRVTISRDNSKNTLYLQMNSLRAEDTAVYYCARSLARTTAMDYWGEGTLVTVSSAKTTPPSVYPLAPGSAAQTNSMVTLGCLVKGYFPEPVTVTWNSGSLSSGVHTFPAVLQSDLYTLSSSVTVPSSTWPSETVTCNVAHPASSTKVDKKIVPRDCGCKPCICEWYEVEDVFIFPPKPKDVLTITLTPKVTCVVVDISKDDPEVQFSWFVDDVEVHTAQTQPREEQFNSTFRSVSELPIMHQDWLNGKEFKCRVNSAAFPAPIEKTISKTKGRPKAPQVYTIPPPKEQMAKDKVSLTCMITDFFPEDITVEWQWNGQPAENYKNTQPIMDTDGSYFVYSKLNVQKSNWEAGNTFTCSVLHEGLHNHHTEKSLSHSPGK
light: not shown
notes: copies: 2 + 2
Consider B4, for which, in test [1], binding was put at a Kd of 1.01 nM and the “relative mFcγRII-binding activity (mIgG1 = 1)” value came out at 208. In test [2], the Kd was found to be 23.6 nM and the “relative mFcγRIII-binding activity (mIgG1 = 1)” value came out at 12. For the same molecule, in test [3], the “I/A (mFcγRII selectivity)” value worked out at 23.3 and the “relative I/A (mFcγRII selectivity) (mIgG1 = 1)” value amounted to 17.4.

As a reminder, the Kd is the equilibrium constant for the complex coming apart. A lower Kd goes with a tighter complex.
